Results published in article PMC2682205, “Cdc7p-Dbf4p Regulates Mitotic Exit by Inhibiting Polo Kinase” (PLoS Genetics, 2009).

Biological target: T1, GST-PoloPBD (Polo amino acids 357–705) (budding yeast (S. cerevisiae), UniProt P32562 357-705)
T1 construct: Cdc5p (Polo), budding yeast; amino acids 357-705 with the polo-box domain; Cloned into pGEX-KG; also called GST-PBD; source: E. coli BL21, purified (glutathione-agarose, dialysis)
T1 sequence (looked up): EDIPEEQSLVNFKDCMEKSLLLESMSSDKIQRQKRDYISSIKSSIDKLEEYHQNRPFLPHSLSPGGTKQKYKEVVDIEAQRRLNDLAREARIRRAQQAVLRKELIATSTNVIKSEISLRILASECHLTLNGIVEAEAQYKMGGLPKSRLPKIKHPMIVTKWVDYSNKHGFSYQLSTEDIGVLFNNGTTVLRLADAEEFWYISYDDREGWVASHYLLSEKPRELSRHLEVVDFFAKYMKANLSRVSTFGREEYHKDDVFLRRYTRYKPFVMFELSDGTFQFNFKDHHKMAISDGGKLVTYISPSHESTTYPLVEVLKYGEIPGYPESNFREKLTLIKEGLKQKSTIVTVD
Test: pull-down; GST or GST-PBD with Sumo or Sumo-Dbf4p on glutathione-agarose, 20 mM Tris-HCl pH 7.0, 300 mM NaCl, 0.5% NP-40, 1 mM EGTA, 1 hour at 4°C; blots with anti-GST-Polo PBD and anti-Smt3p
Settings: both partners purified

binding result: binds
B1: Sumo-Dbf4p_(67–109) (domain or fragment, budding yeast (S. cerevisiae), UniProt P32325 66-109, looked up)
chain: QQQQHLHEKKRARIERARSIEGAVQVSKGTGLKNVEPRVTPKEL
notes: Dbf4p, budding yeast; Cloned into pSUMO (LifeSensors Inc.); also called Dbf4p PIR; source: E. coli BL21, purified (Ni++ column, imidazole gradient)
